Biological target: T1, phospholamban (PLN) (UniProt P26678 1-52)
T1 construct: phospholamban, overexpressed
T1 sequence (looked up): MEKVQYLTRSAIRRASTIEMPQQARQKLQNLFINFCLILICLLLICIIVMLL
Assay: co-IP; IP experiments in overexpression systems, told in the discussion only, data not shown; which partner was precipitated is not told
Conditions: partners not purified

B1: acetylation-mimic mutant of K328 SERCA2a (K328Q) (natural protein, UniProt P16615-2 1-997, looked up)
chain: MENAHTKTVEEVLGHFGVNESTGLSLEQVKKLKERWGSNELPAEEGKTLLELVIEQFEDLLVRILLLAACISFVLAWFEEGEETITAFVEPFVILLILVANAIVGVWQERNAENAIEALKEYEPEMGKVYRQDRKSVQRIKAKDIVPGDIVEIAVGDKVPADIRLTSIKSTTLRVDQSILTGESVSVIKHTDPVPDPRAVNQDKKNMLFSGTNIAAGKAMGVVVATGVNTEIGKIRDEMVATEQERTPLQQKLDEFGEQLSKVISLICIAVWIINIGHFNDPVHGGSWIRGAIYYFKIAVALAVAAIPEGLPAVITTCLALGTRRMAQKNAIVRSLPSVETLGCTSVICSDKTGTLTTNQMSVCRMFILDRVEGDTCSLNEFTITGSTYAPIGEVHKDDKPVNCHQYDGLVELATICALCNDSALDYNEAKGVYEKVGEATETALTCLVEKMNVFDTELKGLSKIERANACNSVIKQLMKKEFTLEFSRDRKSMSVYCTPNKPSRTSMSKMFVKGAPEGVIDRCTHIRVGSTKVPMTSGVKQKIMSVIREWGSGSDTLRCLALATHDNPLRREEMHLEDSANFIKYETNLTFVGCVGMLDPPRIEVASSVKLCRQAGIRVIMITGDNKGTAVAICRRIGIFGQDEDVTSKAFTGREFDELNPSAQRDACLNARCFARVEPSHKSKIVEFLQSFDEITAMTGDGVNDAPALKKAEIGIAMGSGTAVAKTASEMVLADDNFSTIVAAVEEGRAIYNNMKQFIRYLISSNVGEVVCIFLTAALGFPEALIPVQLLWVNLVTDGLPATALGFNPPDLDIMNKPPRNPKEPLISGWLFFRYLAIGCYVGAATVGAAAWWFIAADGGPRVSFYQLSHFLQCKEDNPDFEGVDCAIFESPYPMTMALSVLVTIEMCNALNSLSENQSLLRMPPWENIWLVGSICLSMSLHFLILYVEPLPLIFQITPLNVTQWLMVLKISLPVILMDETLKFVARNYLEPAILE
notes: SERCA2a with lysine 328 exchanged for glutamine to mimic acetylation; The mutants were expressed from plasmids in HEK293 cells for the ATPase assays; also called K328Q SERCA2a
In the case of B1, the “fold change of affinity against wild-type SERCA2a” value is reported as ~2.5 fold.
